Experimental findings from patent US10766960 (dated 2020) are described below.

What is called Kd is the constant that tells how readily two partners part at equilibrium. A high value points to weaker binding.

Common to all, as to assay: SPR
(In SPR one partner is held on a chip, and binding of the other changes the refractive index at the surface.)

The target in one assay is T1, FcgRIa (human, UniProt P12314).
T1 chain: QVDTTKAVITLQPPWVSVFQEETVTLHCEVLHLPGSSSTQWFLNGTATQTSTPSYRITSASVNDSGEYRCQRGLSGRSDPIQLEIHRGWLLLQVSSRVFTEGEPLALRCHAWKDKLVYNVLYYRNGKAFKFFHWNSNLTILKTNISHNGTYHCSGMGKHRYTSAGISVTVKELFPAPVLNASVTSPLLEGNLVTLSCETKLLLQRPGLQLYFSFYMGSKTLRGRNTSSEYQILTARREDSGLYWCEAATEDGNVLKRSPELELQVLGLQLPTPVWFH

The next assay concerns the target T2, FcgRIIa R (human, UniProt P12318).
T2 chain: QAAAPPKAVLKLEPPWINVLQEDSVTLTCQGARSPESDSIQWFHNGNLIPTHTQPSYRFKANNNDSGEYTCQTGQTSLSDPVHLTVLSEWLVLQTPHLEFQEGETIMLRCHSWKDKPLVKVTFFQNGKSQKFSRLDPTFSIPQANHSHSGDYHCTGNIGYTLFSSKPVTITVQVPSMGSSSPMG

The next assay addresses FcgRIIIa V (human, UniProt P08637).
For a further assay, the target named is FcgRIIIa F (human, UniProt P08637).
Sequence of FcgRIIIa F (P08637 17-208): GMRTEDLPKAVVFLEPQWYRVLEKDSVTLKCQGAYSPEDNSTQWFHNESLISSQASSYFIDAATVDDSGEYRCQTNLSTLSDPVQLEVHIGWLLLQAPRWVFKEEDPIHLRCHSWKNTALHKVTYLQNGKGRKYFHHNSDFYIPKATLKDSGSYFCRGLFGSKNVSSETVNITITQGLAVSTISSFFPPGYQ
The target of a further assay is T3, FcgRIIb (human, UniProt P31994).
T3 chain: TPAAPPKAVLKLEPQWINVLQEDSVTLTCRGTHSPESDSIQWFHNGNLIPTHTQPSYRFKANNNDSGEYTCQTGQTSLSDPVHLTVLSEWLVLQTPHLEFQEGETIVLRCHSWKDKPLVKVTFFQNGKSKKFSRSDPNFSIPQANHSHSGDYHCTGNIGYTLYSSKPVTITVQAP

A further assay addresses T4, FcgRIIa H (human, UniProt P12318).
T4 chain: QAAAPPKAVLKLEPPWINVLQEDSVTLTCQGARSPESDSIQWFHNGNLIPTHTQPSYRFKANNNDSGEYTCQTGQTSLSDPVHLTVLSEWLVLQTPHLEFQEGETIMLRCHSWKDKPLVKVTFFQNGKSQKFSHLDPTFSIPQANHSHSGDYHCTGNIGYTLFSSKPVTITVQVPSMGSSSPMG

Sequence of FcgRIIIa V (P08637 17-208 F176V): as the sequence (P08637 17-208) above, with F160V counted along it

B1: H240-Kn234/H240-Hl068/L73-k0 (antibody)
chain 1: QDQLVQSGAEVKKPGASVKVSCKASGFNIKDTYIQWVRQAPGQGLEWMGRIDPLRKQTKYREKFEGRVTITADTSTNTAYMELSSLRSEDTAVYYCVRSGREFDYWGQGTLVTVSSASTKGPSVFPLAPSSKSTSGGTAALGCLVKDYFPEPVTVSWNSGALTSGVHTFPAVLQSSGLYSLSSVVTVPSSSLGTQTYICNVNHKPSNTKVDKKVEPKSCDKTHTCPPCPAPEDYWGPIVFLFPPKPKDTLMISRTPEVTCVVVDVSDEDPEVKFNWYVDGVEVHNAKTKPREEQYNATYRVVSVLTVLHQDWLNGKEYKCKVSNKDLPAPIEKTISKAKGQPREPQVCTLPPSRDELTKNQVSLWCLVKGFYPSDIAVEWESNGQPENNYKTTPPVLDSDGSFFLYSKLTVDKSRWQQGNVFSCSVMHEALHNHYTQKSLSLSP
chain 2: QDQLVQSGAEVKKPGASVKVSCKASGFNIKDTYIQWVRQAPGQGLEWMGRIDPLRKQTKYREKFEGRVTITADTSTNTAYMELSSLRSEDTAVYYCVRSGREFDYWGQGTLVTVSSASTKGPSVFPLAPSSKSTSGGTAALGCLVKDYFPEPVTVSWNSGALTSGVHTFPAVLQSSGLYSLSSVVTVPSSSLGTQTYICNVNHKPSNTKVDKKVEPKSCDKTHTCPPCPAPELLGGPSVFLFPPKPKDTLMISRTPEVTCVVVDVSHEEPEVKFNWYVDGVEVHNAKTKPREEQYNSTYRVVSVLTVLHQDWLNGKEYKCKVSNDALPKPIEETISKAKGQPREPQVYTLPPSRCELTKNQVSLSCAVKGFYPSDIAVEWESNGQPENNYKTTPPVLDSDGSFFLVSKLTVDKSRWQQGNVFSCSVMHEALHNHYTQKSLSLSP
chain 3: DIQMTQSPSSLSASVGDRVTITCRASQDIHKYIAWYQQKPGQAPRLLIQYTSTLQPGVPSRFSGSGSGTDYTFTISSLQPEDIATYYCLQYEQLRTFGGGTKVEIKRTVAAPSVFIFPPSDEQLKSGTASVVCLLNNFYPREAKVQWKVDNALQSGNSQESVTEQDSKDSTYSLSSTLTLSKADYEKHKVYACEVTHQGLSSPVTKSFNRGEC
With B1, the Kd was determined as 0.19 nM in the assay with FcgRIa; 21 nM with FcgRIIa R; 0.68 nM in the assay with FcgRIIIa V; 2.3 nM with FcgRIIIa F; 140 nM with FcgRIIb; 65 nM in the assay with FcgRIIa H.

B2: H240-Kn198/H240-Hl068/L73-k0 (antibody)
chain 1: QDQLVQSGAEVKKPGASVKVSCKASGFNIKDTYIQWVRQAPGQGLEWMGRIDPLRKQTKYREKFEGRVTITADTSTNTAYMELSSLRSEDTAVYYCVRSGREFDYWGQGTLVTVSSASTKGPSVFPLAPSSKSTSGGTAALGCLVKDYFPEPVTVSWNSGALTSGVHTFPAVLQSSGLYSLSSVVTVPSSSLGTQTYICNVNHKPSNTKVDKKVEPKSCDKTHTCPPCPAPELQWGPMVFLFPPKPKDTLMISRTPEVTCVVVDVSDEEPEVKFNWYVDGVEVHNAKTKPREEQYNATYRVVSVLTVLHQDWLNGKEYKCKVSNKALPAPIEKTISKAKGQPREPQVCTLPPSRDELTKNQVSLWCLVKGFYPSDIAVEWESNGQPENNYKTTPPVLDSDGSFFLYSKLTVDKSRWQQGNVFSCSVMHEALHNHYTQKSLSLSP
chain 2: QDQLVQSGAEVKKPGASVKVSCKASGFNIKDTYIQWVRQAPGQGLEWMGRIDPLRKQTKYREKFEGRVTITADTSTNTAYMELSSLRSEDTAVYYCVRSGREFDYWGQGTLVTVSSASTKGPSVFPLAPSSKSTSGGTAALGCLVKDYFPEPVTVSWNSGALTSGVHTFPAVLQSSGLYSLSSVVTVPSSSLGTQTYICNVNHKPSNTKVDKKVEPKSCDKTHTCPPCPAPELLGGPSVFLFPPKPKDTLMISRTPEVTCVVVDVSHEEPEVKFNWYVDGVEVHNAKTKPREEQYNSTYRVVSVLTVLHQDWLNGKEYKCKVSNDALPKPIEETISKAKGQPREPQVYTLPPSRCELTKNQVSLSCAVKGFYPSDIAVEWESNGQPENNYKTTPPVLDSDGSFFLVSKLTVDKSRWQQGNVFSCSVMHEALHNHYTQKSLSLSP
chain 3: DIQMTQSPSSLSASVGDRVTITCRASQDIHKYIAWYQQKPGQAPRLLIQYTSTLQPGVPSRFSGSGSGTDYTFTISSLQPEDIATYYCLQYEQLRTFGGGTKVEIKRTVAAPSVFIFPPSDEQLKSGTASVVCLLNNFYPREAKVQWKVDNALQSGNSQESVTEQDSKDSTYSLSSTLTLSKADYEKHKVYACEVTHQGLSSPVTKSFNRGEC
Take B2: the Kd with FcgRIa came to 0.24 nM; with FcgRIIa R, 240 nM; with FcgRIIIa V, 0.85 nM; with FcgRIIIa F, 3.7 nM; with FcgRIIb, 1600 nM; with FcgRIIa H, 49 nM.

B3: H240-Kn202/H240-Hl214/L73-k0 (antibody)
chain 1: QDQLVQSGAEVKKPGASVKVSCKASGFNIKDTYIQWVRQAPGQGLEWMGRIDPLRKQTKYREKFEGRVTITADTSTNTAYMELSSLRSEDTAVYYCVRSGREFDYWGQGTLVTVSSASTKGPSVFPLAPSSKSTSGGTAALGCLVKDYFPEPVTVSWNSGALTSGVHTFPAVLQSSGLYSLSSVVTVPSSSLGTQTYICNVNHKPSNTKVDKKVEPKSCDKTHTCPPCPAPEEQWGPMVFLFPPKPKDTLMISRTPEVTCVVVDVSDEEPEVKFNWYVDGVEVHNAKTKPREEQYNATYRVVSVLTVLHQDWLNGKEYKCKVSNKALPAPIEKTISKAKGQPREPQVCTLPPSRDELTKNQVSLWCLVKGFYPSDIAVEWESNGQPENNYKTTPPVLDSDGSFFLYSKLTVDKSRWQQGNVFSCSVMHEALHNHYTQKSLSLSP
chain 2: QDQLVQSGAEVKKPGASVKVSCKASGFNIKDTYIQWVRQAPGQGLEWMGRIDPLRKQTKYREKFEGRVTITADTSTNTAYMELSSLRSEDTAVYYCVRSGREFDYWGQGTLVTVSSASTKGPSVFPLAPSSKSTSGGTAALGCLVKDYFPEPVTVSWNSGALTSGVHTFPAVLQSSGLYSLSSVVTVPSSSLGTQTYICNVNHKPSNTKVDKKVEPKSCDKTHTCPPCPAPELLGGPSVFLFPPKPKDTLMISRTPEVTCVVVDVSHEEPEVKFNWYVDGVEVHNAKTKPREEQYNSTYRVVSVLTVLHQDWLNGKEYKCKVSNDALPFPIEETISKAKGQPREPQVYTLPPSRCELTKNQVSLSCAVKGFYPSDIAVEWESNGQPENNYKTTPPVLDSDGSFFLVSKLTVDKSRWQQGNVFSCSVMHEALHNHYTQKSLSLSP
chain 3: DIQMTQSPSSLSASVGDRVTITCRASQDIHKYIAWYQQKPGQAPRLLIQYTSTLQPGVPSRFSGSGSGTDYTFTISSLQPEDIATYYCLQYEQLRTFGGGTKVEIKRTVAAPSVFIFPPSDEQLKSGTASVVCLLNNFYPREAKVQWKVDNALQSGNSQESVTEQDSKDSTYSLSSTLTLSKADYEKHKVYACEVTHQGLSSPVTKSFNRGEC
Turning to B3, the dissociation constant Kd amounted to 0.09 nM in the assay with FcgRIa; 830 nM with FcgRIIa R; 0.95 nM with FcgRIIIa V; 2.6 nM with FcgRIIIa F; 6100 nM with FcgRIIb; 440 nM with FcgRIIa H.

B4: H240-Kn227/H240-Hl214/L73-k0 (antibody)
chain 1: QDQLVQSGAEVKKPGASVKVSCKASGFNIKDTYIQWVRQAPGQGLEWMGRIDPLRKQTKYREKFEGRVTITADTSTNTAYMELSSLRSEDTAVYYCVRSGREFDYWGQGTLVTVSSASTKGPSVFPLAPSSKSTSGGTAALGCLVKDYFPEPVTVSWNSGALTSGVHTFPAVLQSSGLYSLSSVVTVPSSSLGTQTYICNVNHKPSNTKVDKKVEPKSCDKTHTCPPCPAPEEQWGPIVFLFPPKPKDTLMISRTPEVTCVVVDVSDEEPEVKFNWYVDGVEVHNAKTKPREEQYNATYRVVSVLTVLHQDWLNGKEYKCKVSNKALPAPIEKTISKAKGQPREPQVCTLPPSRDELTKNQVSLWCLVKGFYPSDIAVEWESNGQPENNYKTTPPVLDSDGSFFLYSKLTVDKSRWQQGNVFSCSVMHEALHNHYTQKSLSLSP
chain 2: QDQLVQSGAEVKKPGASVKVSCKASGFNIKDTYIQWVRQAPGQGLEWMGRIDPLRKQTKYREKFEGRVTITADTSTNTAYMELSSLRSEDTAVYYCVRSGREFDYWGQGTLVTVSSASTKGPSVFPLAPSSKSTSGGTAALGCLVKDYFPEPVTVSWNSGALTSGVHTFPAVLQSSGLYSLSSVVTVPSSSLGTQTYICNVNHKPSNTKVDKKVEPKSCDKTHTCPPCPAPELLGGPSVFLFPPKPKDTLMISRTPEVTCVVVDVSHEEPEVKFNWYVDGVEVHNAKTKPREEQYNSTYRVVSVLTVLHQDWLNGKEYKCKVSNDALPFPIEETISKAKGQPREPQVYTLPPSRCELTKNQVSLSCAVKGFYPSDIAVEWESNGQPENNYKTTPPVLDSDGSFFLVSKLTVDKSRWQQGNVFSCSVMHEALHNHYTQKSLSLSP
chain 3: DIQMTQSPSSLSASVGDRVTITCRASQDIHKYIAWYQQKPGQAPRLLIQYTSTLQPGVPSRFSGSGSGTDYTFTISSLQPEDIATYYCLQYEQLRTFGGGTKVEIKRTVAAPSVFIFPPSDEQLKSGTASVVCLLNNFYPREAKVQWKVDNALQSGNSQESVTEQDSKDSTYSLSSTLTLSKADYEKHKVYACEVTHQGLSSPVTKSFNRGEC
B4: the Kd with FcgRIa stood at 0.13 nM; with FcgRIIa R it was 370 nM; with FcgRIIIa V it was 0.8 nM; in the assay with FcgRIIIa F, 1.8 nM; with FcgRIIb it was 2800 nM; with FcgRIIa H, 290 nM.
